From the DeepSol protein solubility set

Assay: soluble on expression in E. coli; label from the status in PepcDB or PDB records

Sequence | soluble on expression in E. coli
MVFRKYRAVKQWGKMDTRIFKEIYNSRNKRKMPAFEVPDAVKALGVPVFEPNEIFQLSNRKNLVEQAAKEHMENELKFTEPPQQHPLQKSHPAYIFEAAEPMSDGIAQAAVLTRSVVATGGLPDTILLNSAAKLEIDEEMVKDAILHGERYNPSLEKLPARFDPVMFWIRHPRLHGTPVIKKNNIILNNLLRHVVLGGLRTQALKQNFQFSTKILQKNSNFLWKIQKNLIFSDFRLKLKNFCRVNRDSPLSVYVSGGQYFSKNALVLRAQPHLTVQSADSTVTMPWAGPIDVKAVWRIFTKMFSFSSFSYQNSSIFHQKLSKIFSAEPLPDIYPISPVIDFSMDTIYNDDVLLTRRSQQQKTHIHSILWSREQDQKYPWTSEQNMANAILTTYAAAVAEATRNGATTELEKPLLVRGVQLVNGRLDLVAMQLNTLKPTSEAGNNDEKNIVWIEKGLRLYKPTPYYEQMDTVEKLDMTVFHKFVALMLGFGAPHAH | not soluble
MYADEVDKDRRTFKKNFSSARGSGIDGKWKRDMFQTANRSPKQNFTTKRRAQTNFVTKAGAAAAGLATRNISTASIRGRTAPAVVREIHTGPSTLIIKNLATTVTQEDLEELFEQYEPELVQLHYGPTGESNGCADLIVPHAQVAIIQKALEGVLLDGEPIEVLEANPPKQVSVFDRIKKVSRGNDFKAKNMRVVVKSKGGFQKRGARGDF | not soluble
MRGSHHHHHHGSIWEWKEAHFQDAFSSFQAMYAKSYATEEEKQRRYAIFKNNLVYIHTHNQQGYSYSLKMNHFGDLSRDEFRRKYLGFKKSRNLKSHHLGVATELL | soluble
MSTVVSEGRNDGNNRYSPQDEVEDRLPDVVDNRLTENMRVPSFERLPSPTPRYFGSCKWFNVSKGYGFVIDDITGEDLFVHQSNLNMQGFRSLDEGERVSYYIQERSNGKGREAYAVSGEVEGQGLKGSRIHPLGRKKAVSLRCFRCGKFATHKAKSCPNVKTDAKVCYTCGSEEHVSSICPERRRKHRPEQVAAEEAEAARMAAEKSSPTTSDDDIREKNSNSSDE | not soluble
PDIDGGILFLEDVGEQPYRIERMLNTLYLSGILKKQRAIVFGNFRMEKIRDVYDPSYDFSAVANHVSRTAKIPVLTGFPFGHIADKITFPLGAHARIRMNGNSGYSVAFEGYPTLDASALTLDTLLPPPDLPIFPESGVADISE | not soluble
YEQKIRLENRSVAGKWALSQKGFDGKKLMRAYDSPEAAAAALKMQKLTEQYRIDSTPTVIVGGKYRVIFNNGFDGGVHTIKELVAKVREERKRQTPAVQK | not soluble
MGSDKIHHHHHHMSLSAQKCGRFFVSIQTEFEQERPTHKGGEIGIDMGVTRFATLSNGEFFEPLNAFKTYKGKLAKLQKQLKNKVKFSKNWQKLKEKIGKLHHKIANCRKDFLHKISTQISKNHAMIYVEDLQVANMSKSAKGTVEAHGKNVKQKSGLNRAILDQSWFEFRRQLDYKTQWLGGFLVAVPPRDTSRTCPCCGHIAKENRETQAHFECVECGYRENADVVGGINVLARGLAIVQA | not soluble
MAVELNQLRDQIDEVDKQMVELLARRLALVEQVGQVKSRYGLPIYAPDREAAMLASRRAEAESKGVPPQLIEDILRRTMRESYASEKDSGFKCLNPELRSVVIVGGNGQLGRLFGRMFKLSGYQVKVLGSQDWDKADELLSDAGLVVVTVPIHLTLGVIEKLRQLPDDCILCDLTSIKAKPLAAMLQVHKGPVVGLHPMFGPDVPSLAKQVIVYCDGRGNEHYQWLLQQFAIWGASLCQIDADEHDRGMTLIQALRHFTSFAYGLHLTKENPNLAQLLKLSSPIYRLELAMVGRLFGQDPHLYGDIILSSPENIEMIQRFHRCLSDAVELVSAGDKASFVAQFERVSQWFGDYSQQFMHESQNLLKQANDAIHRG | not soluble
GSHEATVEYLADLVKEKKHLTLFPHMFSNVERLLDDEIGRVRVALFQTEFPRVELPEPAG | soluble
SGQKASQQVAPKDSQEVLAMCEVVSAAISHAAQKLKEYLGFEYPLSRLCLAASSLTEVFLVHFVTFCQERGADEWLTTTKMTKHQAWLFGADWIWTFWGPDKEIRLQVAVQTLRMASLPLTDPKSCESRGEESWKKGRFDKLQEFCNLVGEDCLGLFIIFGVPGEPKAIRGVVLESVRNGMMESQLPGRKAVEQFVLETKDCVSIKELLGNCLSKRDGLSDMGRVYIRIL | soluble
METSTIIDGGTSFVIDSEKKTITIYVKTADGSSVKAEGCTETVIESGTESTLNIKSSLIILKGNIIEFNCGGDPYTYGNQIKSLNVQGLKNLEKLNCSGNRLTELNIEGLNNLKELACRYNRLSSLDVAHLPALEFLWCTANLLTDLNLTGMSSLKRLGCNNNKLEVLNLEGLTSLEHLWCGNNLLNKLNLTDLKSLTGLNCEKNKLTELDLTGLTALEHLWCSKNLLTKLNLTKALHLQSLDCSSNMLTELNTEELNDLQYLNSSGNCLPLS | not soluble
WSNNYAVDCPQHCDSSECKSSPRCERTVLDDCGCCRVCAAGRGETCYRTVSGMDGMKCGPGLRCQPSNGEDPFGEEFGICKDCPYGTFGMDCRETCNCQSGICDRGTGKCLKFPFFQYSVTKSSNRFVSLTEHDMASGDGNIVREEVVKENAAGSPVMRKWLNPR | soluble
MGSDKIHHHHHHMLGASQPYDLGPGIRRGSRGKGGAMTQIPNHDPLSDWGLPGWIYTSERFFKEEQDKVFRPSWQIVCHLNDIPKAGDFHTFDFIGESLVVVRSKDGGVRAFANVCRHRGARLLDGPVGRCGGRIVCPYHAWTYDLEGRLIGVPMRDDYPALDMAKEGLATIEVEVWRGFVFVRLEGDGPSVATMMAPYEDEVAHYRFEELQPFGRVTLRPRAVNWKNISDNYSDGLHIPVAHPGLTRLFGKGYGVEAEAYVDKMWGQLIDEPSESPSERLYQDILPDVAHLPGDRKRLWTYFKLWPNFAFDIYPDQVDFMQFIPISAEQTMIREIAYALPDDRREMKAARYLNWRINRQVNTEDTELVARVQQGMASRTFTAGPLATSEVSLRSFGRKMRALIPESRMPRPPEGW | not soluble
MIDDRQEEKMIKENVYFDGNVKSLGFSQQDGESTVGVMAPGQYTFGTGAPERMTVVKGALTIKRVTDADWVTFTAGEAFEVAGNSSFDLQVEVATAYLCEFLPA | not soluble
MGKRVLIVDDAAFMRMMLKDIITKAGYEVAGEATNGREAVEKYKELKPDIVTMDITMPEMNGIDAIKEIMKIDPNAKIIVCSAMGQQAMVIEAIKAGAKDFIVKPFQPSRVVEALNKVSK | soluble
MSLGESRKHIDYKKGTINLNGVEYPLNDTNFPTINPENPLELLEEEAELLDKLQASFLGSEKLQKHMQLLFAKGGMYLKYNSNLLFHACIPMEPNGEFSKLYVEDGYYKGKALMDKIDNIVRQAYYDRKNVEVNKKHRDFIWYLWAGRLSPLFGKDVMKTFERYFIDDKSTHKEIKNPYHKLINDEKICDKIFEEFGLNPRTSHIINGHIPVKVKEGESPIKANGKLLIIDGGFSRAYQSTTGIAGYTLTYNSYGMKLASHLKFISKEAAIKDGTDMISSHIIVETKSKRMKVKDTDIGKNIQNQINDLKKLLKAYRIGLIKSNEGHHHHHH | not soluble
MGSDKIHHHHHHMVKKIMLHGATDYGSSNYGDYLYGEIVYDLLESKGYEVSFYNPSDFFQMYLKEYRQKQSFTKKQADAILYIPGGYFGEGHNARFRDNLIQFKRFLPLGIWASYFKKPIGVLGIGAGPNNDSLMNYGIKRIINHAQFITVRDRESFDSLKHLSPSAPVHETFDLIISSKLREEKTEQLCQLKREAKDKKIILVHYNHSKKALEKFAESISLFLENNPNYYVVVTSDSILPYEDAYYQEFRKLVRTEDCFQFKYHSPAEMTSLLKMVDVVLTCKLHVGVVATCFNKSVIAIACHPEKTARYYGAIGELQRCESLFDSSVNSIVKKLETFHLKPITIPSELVLKARSSLDYLDLFLEGLVRES | not soluble
MPDSPVDVKTQSRLTPPTMPPPPTTQGAPRTSSFTPTTLTNGTSHSPTALNGAPSPPNGFSNGPSSSSSSSLANQQLPPACGARQLSKLKRFLTTLQQFGNDISPEIGERVRTLVLGLVNSTLTIEEFHSKLQEATNFPLRPFVIPFLKANLPLLQRELLHCARLAKQNPAQYLAQHEQLLLDASTTSPVDSSELLLDVNENGKRRTPDRTKENGFDREPLHSEHPSKRPCTISPGQRYSPNNGLSYQPNGLPHPTPPPPQHYRLDDMAIAHHYRDSYRHPSHRDLRDRNRPMGLHGTRQEEMIDHRLTDREWAEEWKHLDHLLNCIMDMVEKTRRSLTVLRRCQEADREELNYWIRRYSDAEDLKKGGGSSSSHSRQQSPVNPDPVALDAHREFLHRPASGYVPEEIWKKAEEAVNEVKRQAMTELQKAVSEAERKAHDMITTERAKMERTVAEAKRQAAEDALAVINQQEDSSESCWNCGRKASETCSGCNTARYCGSFCQHKDWEKHHHICGQTLQAQQQGDTPAVSSSVTPNSGAGSPMDTPPAATPRSTTPGTPSTIETTPR | soluble
MKKDWQEQLPLNHIRDIKTVSGGDVNEAFKVTTEDDVYFLLVQRNRDKSFYAAEIAGLNAFEEAGVTAPHVIDSGEINGDAFLILSYLDEGTTGSQRELGQLVAKMHSQQQSDGKFGFDLPHEGGDISFDNTWSDSWIEIFVERRMDHLRDELMRKGLWNDEDNKVYEQVRTVMVNELENHNSNPSLLHGDLWGGNYMFLTDGSPALFDPAPFYGDREFDLGITTVFGGFTREFYDEYEKHYPLGKGSRKRLEFYRLYLFMVHLLKFGGMYASSVNRSMDEILALEHHHHHH | soluble
MGSDKIHHHHHHMGYLKTMVDVMTTEMNAIRCLIDEAGIEYESIVSEIANCEGKVIFMGVGKSAHIGKKLAATFASTGTPSFFVHATEAVHGDLGMIESKDITILISNSGNSMEVVNCIKYIKAIGSKTIAFTSNRNSVLAKECDYALIYPAKDEADHLNLAPTTSSTITLVLGDSIACALSKSSNFGSSDFYKYHPGGSLGEKLKTANNG | not soluble
PLNEVVRLHGSSGTSGKPTVVAYTQKDLEHWSSIIARSIYMAGGRKGDLLHNAYGYGLFTGGLGLHGGSEKLGCVTVPISGGNTQRQITLIQDFKPRVICGTPSYIMNIGETMKKMGIDPASTSIQYAILGSEPWSEEMRKNLETMFNMKAMDIYGLSEVIGPGVGMEC | not soluble
MGSDKIHHHHHHDLDGAITTPAAVELALNGIYYSLPGNGFNVIFPTVSGSFKAGTMWRQEIVSAGNAVYYSERMLPTLSFSDATEWDADYAVIKNANFLETACNRMSDGEFSGNRRAEVLGEIAYLRALAYFNILVRYCEFWDMNSEYGVVMRNEAPSVSNALKARSSVADSYQYILDQLEIAIEKAPDWKKLSQASKEAAKALKARVLLYAGKYTEAVAAVNDAIDTNSPLPEANYGDVFDKFSTTKEILFARVFDQKDATNTSTRQQCYGNSPTKKQGYWGPTNEYVELVGDDPRADAIFSKVDSLMDSRSSAVAYNLKSVKKLLNDANDMPVIFSRVSELYLIKAEALYRSGASISEAYAPIRKLRERAGAEIILPANNEELETAIFNEWMLELSFENWHEWFAMIRFAGYTEKPDFTRLLALNKTLREALEKEYEKSEAQGDNYYQRIIDRRIDAIPSSEISSNLECKQNPGY | not soluble
METDGDPTNEIPGSSMAFEVANHTVTEEPSPLDRILAEGRSFNGGNWSSDDLRSLLDGVMKYGTKIEAINYIHRNIVKKRSIEEIKAKIDEIREIIKEHKEIILPECYKNKWIEAGHHNITPPPFCQVDPNDDWSSIMGKIVDHHHGSINKTLPSLRDTYETLFENLALESKTHENAVVTKLLTAKATRTDSQNIRWPVIYRFMKACATLEEQMPALNELEAAVVSKVLDTIETEATTTPDTEKSILAGIFSECQQGNYRFCEQDYPPNVMAAVQLFVDPLRTRFHAIPEVASEVELINFTKDNQPSTSSN | not soluble
